Tests used:
Type in all cases: cell-based
SSX-1 to SSX-10 peptides = assay: Co-culture with T2 cells pulsed with SSX family peptides; settings: peptide-pulsed T2 cells; FIG. 5
Procedure: The peptides used for pulsing were: SSX-1 (KYSEKISYV, SEQ ID NO: 32) (-♦-); SSX-2 (KASEKIFYV, SEQ ID NO: 2) (▪); SSX-3 (KVSEKIVYV, SEQ ID NO: 8) (▪); SSX-4 (KSSEKIVYV, SEQ ID NO: 9) (X); SSX-5 (KASEKIIYV, SEQ ID NO: 10) ( ? ); SSX-6 (KFSEKISCV, SEQ ID NO: 33) (•); SSX-7 (KSLEKISYV, SEQ ID NO: 34) (|); SSX-8 KYSEKISYV, SEQ ID NO: 32) (-); SSX-9 (KSSEKIIYV, SEQ ID NO: 11) (—); and SSX-10 (KASEKILYV, SEQ ID NO: 12) (--♦--).
Co-culture assays were performed with PBLs transduced with the SSX-2 TCR of Example 2 and peptide-pulsed T2 cells.

SK MEL37 = assay: IFN-γ release, co-culture with SK MEL37 melanoma; settings: co-cultured with SK MEL37 (Melanoma)
Excerpt: (§1) SSX-2 TCR-transduced PBLs were co-cultured with various tumor cell lines. […] FIGS. 4A and 4B, FIG. 11, and Tables 3 and 4 show additional results of PBLs from human donors that were transduced with the SSX-2 TCR of Example 2 when these PBLs were co-cultured with various tumor cells. PBLs that were untransduced (UT) or transduced with a vector comprising SEQ ID NO: 27 (SSX-2 TCR), SEQ ID NO: 29 (codon-optimized SSX-2 TCR), or SEQ ID NO: 30 (codon-optimized SSX-2 TCR including mouse constant region) were co-cultured with various tumor cell lines. Tables 5 and 6 show the resulting interferon-γ levels (pg/ml) measured with respect to PBL from two different donors.

COS-A2-SSX-2 cells = assay: Proliferation ([3H]-thymidine) on co-culture with COS-A2-SSX-2 cells; settings: PBL from Donor 1 or Donor 2; FIGS. 6A, 6B
Procedure: PBLs from Donor 1 or Donor 2 that were untransduced (UT) or transduced with a vector comprising SEQ ID NO: 27 (SSX-2 TCR), SEQ ID NO: 29 (codon-optimized SSX-2 TCR), or SEQ ID NO: 30 (codon-optimized SSX-2 TCR including mouse constant region) were co-cultured with COS-A2-SSX-2 cells. Proliferation in terms of [^3H]-thymidine incorporation (CPM) was measured and is shown in FIG. 6A (Donor 1) and 6B (Donor 2).

[1] = test system: SSX-2+/HLA-A2+ target cells; assay: Percent lysis of target cells; settings: FIGS. 7A-D and 8A-D, various E:T ratios
COS-A2 = assay: IFN-γ release, TCR-transduced PBL co-cultured with COS-A2; settings: for IFN-γ: human donor PBL co-cultured with COS-A2; for interferon-γ levels: co-cultured with Cos-A2
Excerpt: as §1

293-A2 = assay: IFN-γ release, co-culture with 293-A2; settings: co-cultured with 293-A2
Excerpt: as §1

K562 = assay: IFN-γ release, co-culture with K562; settings: co-cultured with K562
Excerpt: PBLs that were untransduced (UT) or transduced with a vector comprising SEQ ID NO: 27 (SSX-2 TCR), SEQ ID NO: 29 (codon-optimized SSX-2 TCR), or SEQ ID NO: 30 (codon-optimized SSX-2 TCR including mouse constant region) were co-cultured with various tumor cell lines. Tables 5 and 6 show the resulting interferon-γ levels (pg/ml) measured with respect to PBL from two different donors.

B1: SSX2-TCR-WT: HLA-A2 restricted anti-SSX-2 TCR alpha and beta chains encoded by SEQ ID NO: 27, tested as transduced human PBLs (protein)
chain: MSLSSLLKVVTASLWLGPGIAQKITQTQPGMFVQEKEAVTLDCTYDTSDPSYGLFWYKQPSSGEMIFLIYQGSYDQQNATEGRYSLNFQKARKSANLVISASQLGDSAMYFCAMTSGFGNEKLTFGTGTRLTIIPNIQNPDPAVYQLRDSKSSDKSVCLFTDFDSQTNVSQSKDSDVYITDKTVLDMRSMDFKSNSAVAWSNKSDFACANAFNNSIIPEDTFFPSPESSCDVKLVEKSFETDTNLNFQNLSVIGFRILLLKVAGFNLLMTLRLWSSRAKRSGSGATNFSLLKQAGDVEENPGPMGPGLLHWMALCLLGTGHGDAMVIQNPRYQVTQFGKPVTLSCSQTLNHNVMYWYQQKSSQAPKLLFHYYDKDFNNEADTPDNFQSRRPNTSFCFLDIRSPGLGDAAMYLCATSRGQGGQPQHFGDGTRLSILEDLNKVFPPEVAVFEPSEAEISHTQKATLVCLATGFFPDHVELSWWVNGKEVHSGVSTDPQPLKEQPALNDSRYCLSSRLRVSATFWQNPRNHFRCQVQFYGLSENDEWTQDRAKPVTQIVSAEAWGRADCGFTSVSYQQGVLSATILYEILLGKATLYAVLVSALVLMAMVKRKDF
reactivity with SSX family peptides (SSX-1 to SSX-10 peptides): most reactive with the peptide of SSX-2 and also recognizes the peptides of SSX-3, -4, -5, -9, and -10 over the other SSX peptides
IFN-γ (SK MEL37; Table 3): 10000 pg/mL
IFN-γ (SK MEL37; Table 4): 9720 pg/mL
proliferation ([3H]-thymidine incorporation) (COS-A2-SSX-2 cells): proliferate in response to co-culture with COS-A2-SSX-2 cells
lytic activity (percent lysis) [1]: specific lytic activity against SSX-2^+/HLA-A2^+ target cells
IFN-γ (COS-A2; Table 3): 297 pg/mL
IFN-γ (COS-A2; Table 4): 180 pg/mL
interferon-γ levels (COS-A2; Table 5 donor): 2839 pg/mL
interferon-γ levels (COS-A2; Table 6 donor): 460 pg/mL
IFN-γ (293-A2; Table 3): 173 pg/mL
IFN-γ (293-A2; Table 4): 144 pg/mL
interferon-γ levels (293-A2; Table 5 donor): 582 pg/mL
interferon-γ levels (293-A2; Table 6 donor): 1520 pg/mL
interferon-γ levels (K562; Table 5 donor): 1969 pg/mL
interferon-γ levels (K562; Table 6 donor): 1807 pg/mL

From US10864252B2, “Anti-SSX-2 T cell receptors and related materials and methods of use” (The United States of America, as represented by the …, priority 2010, dated 2020)
